Results reported in article PMC8409985.

Biological target: truncated human ACE2 ectodomain (residues 19–613) with C-terminal AVI-tag and 6xHis-tag, biotinylated (human) (UniProt Q9BYF1)
Assay: BLI

SARS-CoV-2 RBD variant S477N (from UniProt P0DTC2 319-541) (domain or fragment)
t1/2: 2.68 min
